The experiment has as its target TTLL7-treated microtubules (mouse brain tubulin) (mouse (endogenous in brain)) (UniProt P68369). The experiment can be described thus: TIRF microscopy, single-molecule imaging (kymographs, dwell time); MTs immobilised on a cover glass by a tubulin antibody; Kif5c-GFP in imaging buffer (BRB80, 1 mM ATP, 20 μM taxol); 35 °C; dwell times from kymographs, events shorter than 0.2 s left out, single exponential fit.
Chain of UniProt P68369 (P68369 whole entry, chain 1 of 2): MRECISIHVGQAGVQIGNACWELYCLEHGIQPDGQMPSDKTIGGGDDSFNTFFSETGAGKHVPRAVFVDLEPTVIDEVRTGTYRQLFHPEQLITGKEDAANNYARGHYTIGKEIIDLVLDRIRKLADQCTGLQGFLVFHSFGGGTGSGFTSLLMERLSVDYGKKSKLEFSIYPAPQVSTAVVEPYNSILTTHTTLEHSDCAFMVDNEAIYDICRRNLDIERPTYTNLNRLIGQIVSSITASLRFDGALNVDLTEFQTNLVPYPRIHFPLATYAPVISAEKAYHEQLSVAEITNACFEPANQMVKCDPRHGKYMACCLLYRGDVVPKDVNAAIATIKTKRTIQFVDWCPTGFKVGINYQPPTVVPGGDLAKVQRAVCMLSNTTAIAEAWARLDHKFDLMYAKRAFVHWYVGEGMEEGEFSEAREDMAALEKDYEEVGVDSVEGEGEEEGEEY
Chain of UniProt P68369 (Q7TMM9 whole entry, chain 2 of 2, further chain): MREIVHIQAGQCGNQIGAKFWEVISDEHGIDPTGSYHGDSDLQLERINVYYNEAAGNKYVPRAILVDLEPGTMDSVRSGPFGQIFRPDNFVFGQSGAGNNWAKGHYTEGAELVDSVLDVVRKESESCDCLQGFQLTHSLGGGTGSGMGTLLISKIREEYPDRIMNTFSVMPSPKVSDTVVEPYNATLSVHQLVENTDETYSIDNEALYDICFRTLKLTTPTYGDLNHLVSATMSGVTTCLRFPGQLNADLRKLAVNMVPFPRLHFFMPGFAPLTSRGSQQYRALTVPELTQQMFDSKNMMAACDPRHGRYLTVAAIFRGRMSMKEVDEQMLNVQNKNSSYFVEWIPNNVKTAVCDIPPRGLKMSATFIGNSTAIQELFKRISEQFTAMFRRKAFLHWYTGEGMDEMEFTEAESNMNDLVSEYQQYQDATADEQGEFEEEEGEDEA

Substance “Kif5c-GFP (amino acids: 1–430) (from UniProt P56536 1-430) (domain or fragment)” displayed a dwell time of 0.5 s.

Values taken from publication PMC10404701.
